{"source": "patent US20190262431", "molecular_target": "active (phosphorylated) human Syk (Merck Millipore) (UniProt P43405)", "data": [{"substance": "catalytically inactive human C373A Cbl-b^29-483 mutant (recombinant, GST fusion protein)", "values": [{"measurement": "in vitro poly-ubiquitination of active Syk (Western blot)", "result": "did not show Syk poly-ubiquitination activity"}]}]}
